Reference: patent publication US20040258659A1

Biological target: CCR5, P51681
Assay: competitive radioligand binding on whole CHO-CCR5 cells at 4 C, 12 pM [125I]MIP-1α tracer
Conditions: remark: other sources report otherwise

Chain of CCR5, P51681 (P51681 whole entry): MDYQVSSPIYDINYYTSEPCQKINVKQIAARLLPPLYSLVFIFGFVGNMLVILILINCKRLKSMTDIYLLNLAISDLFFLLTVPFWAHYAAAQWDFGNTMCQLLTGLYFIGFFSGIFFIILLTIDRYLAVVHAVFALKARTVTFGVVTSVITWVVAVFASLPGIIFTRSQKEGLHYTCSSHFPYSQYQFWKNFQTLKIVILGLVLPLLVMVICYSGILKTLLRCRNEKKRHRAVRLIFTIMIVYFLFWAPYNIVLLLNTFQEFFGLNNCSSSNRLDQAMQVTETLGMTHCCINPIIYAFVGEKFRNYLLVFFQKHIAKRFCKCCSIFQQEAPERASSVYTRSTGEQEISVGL

IC50: 1.7 nM
B1: RANTES, P13501 24-91 (ligand, human, UniProt P13501 24-91, looked up)
chain: SPYSSDTTPCCFAYIARPLPRAHIKEYFYTSGKCSNPAVVFVTRKNRQVCANPEKKWVREYINSLEMS
